Where “and” joins values, the source holds several entries; their conditions need not be identical. Identical values can stand only once.
What was measured:
[1] = target: recombinant Ser 255 mutation FGF2 (UniProt P09038); test: gel electrophoresis under non-denaturing conditions; recombinant FGF2 under non-denaturing conditions, compared with denaturation at 95 °C
[2] = target: recombinant wild-type FGF2 (UniProt P09038); test: as above

stoichiometry N [1] | stoichiometry N [2] | Substance
2 and 4 | – | recombinant Ser 255 mutation FGF2 (from UniProt P09038 1-288) (natural protein)
– | 2 and 4 | recombinant wild-type FGF2 (from UniProt P09038 1-288) (natural protein)

Reference: paper PMC12460815
